Measured values from paper PMC3431236, “Characterization and optimization of ArtinM lectin expression in Escherichia coli” (BMC Biotechnology, 2012).

Experiments:
[1] = target: plant native ArtinM (Artocarpus integrifolia); test: SEC; analytical size exclusion chromatography on TSK-G2000sw, 50 mM KH2PO4, 300 mM NaCl, pH 7.4; calibrated with thyroglobulin, immunoglobulin G, ovalbumin and myoglobin
[2] = target: T1, rArtinM (recombinant ArtinM) (Artocarpus integer, UniProt Q7M1T4, Q3R); test: affinity chromatography on D-mannose column, eluted with free D-mannose; type: binding; details: PBS with 0.5 M NaCl, 4 °C; elution with 0.1 M D-mannose; unintentional Q3R carried by the recombinant protein
T1 construct: coding region from cDNA clone pLL29 in pET29a(+) (NdeI/BamHI, stop codon, untagged), E. coli BL21-CodonPlus(DE3)-RP; initiator Met removed, not N-acetylated; unintentional Q3R; monomer (native is tetramer)
T1 sequence (Q7M1T4 entry or part of it Q3R): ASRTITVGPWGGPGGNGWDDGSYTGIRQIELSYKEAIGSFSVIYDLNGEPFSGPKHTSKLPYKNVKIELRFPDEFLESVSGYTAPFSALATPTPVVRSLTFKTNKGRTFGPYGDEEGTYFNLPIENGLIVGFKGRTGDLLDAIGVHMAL

stoichiometry N [1]	Molecule	affinity chromatography on D-mannose column, eluted with free D-mannose [2]
4	plant native ArtinM (natural protein)	
	OC[C@H]1OC(O)[C@@H](O)[C@@H](O)[C@@H]1O (stereo partly drawn) [D-mannose]	purified from the E. coli lysate by affinity chromatography on a D-mannose column
